B1: -003 (antibody, V domains shown)
VH: not shown
VL: DIQMTQSPSSLSASVGDRVTITCRASQGISSWLAWYQQKPEKAPKSLIYAASSLQSGVPSRFSGSGSGTDFTLTISSLQPEDFATYYCQQYNSYPRTFGQGTKVEIK
B2: -024 (antibody, V domains shown)
VH: EVQLVQSGAEVKKPGESLKISCKGSGYSFSNYWIGWVRQMPGKGLEWMGIIYPHDSDARYSPSFQGQVTFSADKSISTAYLQWSSLKASDTAMYYCARHVGWGSRYWYFDLWGRGTLVTVSS
VL: EIVLTQSPATLSLSPGERATLSCRASQSVSSYLAWYQQKPGQAPGLLIYDASNRASGIPARFSGSGSGTDFTLTISSLEPEDFAVYYCQQRSNWPLTFGGGTKVEIK

What was measured:
Test in all cases: cell-based or functional assay
[1] = biological target: T1, human CD38 (human, UniProt P28907 1-300)
[2] = biological target: T1, human CD38; remark: listed apart in the source
[3] = biological target: T1, human CD38; remark: listed apart in the source
[4] = biological target: T1, human CD38; remark: listed apart in the source

| Binder | EC50 of CDC (PI-positive cells), CD38-CHO cells [1] [µg/mL] | EC50 of CDC (PI-positive cells), Daudi-luc cells [1] [µg/mL] | EC50 of ADCC (51Cr release), Daudi-luc target cells [2] [µg/mL] | EC50 of ADCC (51Cr release), fresh MM tumor cells [2] [µg/mL] | EC50 of CDC, CHO-CD38 cells (n = 2) [3] [µg/mL] | Log EC50 of ADCC, Daudi target cells (n=5) [4] |
| --- | --- | --- | --- | --- | --- | --- |
| B1 | 3.14 | > 90 | 0.009 | 0.027 | 4.5 | 1.17 |
| B2 | 0.24 | > 90 | 0.0097 | 0.056 |  |  |
